{
  "source": "patent US20070264229A1",
  "about": "“Peptides for Treatment of Autoimmune Disease” (priority 2004, published 2007)",
  "data": [
    {"target": "T1, HLA-DR2 (DRA/DRB1*1501) (Homo sapiens, UniProt P01903+P01911)", "T1 construct": "isolate soluble HLA-DR2 molecules which had been expressed in Drosophila S2 cells; made in house; host or cells: Drosophila S2 cells", "experiment": "Competitive binding assay for HLA-DR2: inhibition of biotinylated MBP 85-99 binding", "details": "recombinant HLA-DR2, FIG. 1A and Table 1", "procedure": "The reaction mixtures were transferred to plates coated with LB3.1 Ab specific to HLA DR2 molecules. Following addition of streptavidin-conjugated alkaline phosphatase, absorbance was measured at 450 nm by using a microtiter plate reader. Percent inhibition was calculated as described in the Materials and Methods. […] These studies were performed as described ([…]. et al. 2002. J Clin Invest 109:1635). […] Antigen presentation assay was performed as described previously [[…]. et al. 2001 Hum Immunol 62:753].", "values": [
      {"molecule": "APEAKKVEAFKAAAAPA (The peptide was designed and synthesized.) [J17]", "inhibition of binding of biotinylated MBP 85-99 to HLA-DR2 (in words)": "most effective"},
      {"molecule": "EAPKVEAYKAAAAPA (The peptide was designed and synthesized.) [J13]", "inhibition of binding of biotinylated MBP 85-99 to HLA-DR2 (in words)": "most effective"},
      {"molecule": "EKAKEEAYKAAAAAA (The peptide was designed and synthesized.) [J4]", "inhibition of binding of biotinylated MBP 85-99 to HLA-DR2 (in words)": "significantly decreased binding"},
      {"molecule": "APEKAKFEAFKAAAAPA (The peptide was designed and synthesized.) [J8]", "inhibition of binding of biotinylated MBP 85-99 to HLA-DR2 (in words)": "most effective"},
      {"molecule": "APEKAKFEAYKAAAAPA (The peptide was designed and synthesized.) [J9]", "inhibition of binding of biotinylated MBP 85-99 to HLA-DR2 (in words)": "most effective"},
      {"molecule": "APEAKKFEAFKAAAAPA (The peptide was designed and synthesized.) [J15]", "inhibition of binding of biotinylated MBP 85-99 to HLA-DR2 (in words)": "most effective"},
      {"molecule": "EKPKEEAFKAAAAPA (The peptide was designed and synthesized.) [J6]", "inhibition of binding of biotinylated MBP 85-99 to HLA-DR2 (in words)": "significantly decreased binding"}
    ]},
    {"target": "T2, recombinant soluble HLA-DR2 (DRA/DRB1*1501) (human, UniProt P01903 26-216; P01911 30-227, limits assumed)", "T2 construct": "extracellular domain; also called HLA-DR2 (DRB1*1501); soluble HLA-DR2 molecules", "experiment": "competition ELISA: soluble HLA-DR2, biotinylated MBP85-99 (0.5 µM), unlabeled competitor (1 µM); capture on LB3.1 antibody", "details": "not given", "units": {"% inhibition": "%"}, "values": [
      {"molecule": "APEKAKFEAFKAAAAPA (also called peptide J8)", "note": "[J8]", "% inhibition": 34},
      {"molecule": "APEKAKFEAYKAAAAPA (also called peptide J9)", "note": "[J9]", "% inhibition": 31},
      {"molecule": "APEKAKVEAFKAAAAPA (also called peptide J10)", "note": "[J10]", "% inhibition": 5},
      {"molecule": "EAKKYEAYKAAAAAA (also called peptide J11)", "note": "[J11]", "% inhibition": 0},
      {"molecule": "EAPKFEAYKAAAAPA (also called peptide J12)", "note": "[J12]", "% inhibition": 13},
      {"molecule": "EAPKVEAYKAAAAPA (also called peptide J13)", "note": "[J13]", "% inhibition": 44},
      {"molecule": "APEAKKVEAFKAAAAPA (also called peptide J17)", "note": "[J17]", "% inhibition": 23},
      {"molecule": "EKAKYEAYKAAAAAA (also called peptide J1)", "note": "[J1]", "% inhibition": 18},
      {"molecule": "EKAKFEAFKAAAAAA (also called peptide J7)", "note": "[J7]", "% inhibition": 19}
    ]}
  ]
}
